The values below come from patent WO2008021263A2 (dated 2008).

Positions count from the first letter of the chain named.

Experiment [1] deals with T1, dimeric form of SDF-1α (Felis catus (Cat) (Felis silvestris …, UniProt O62657 22-89)).
T1 construct: Same protein as m1; also called SDF-lα dimers; dimeric state of the SDF-1α antigen
As to the kind of experiment: SPR, both formats (SDF-1α on chip; Fab on anti-CH1 chip). (Surface plasmon resonance follows binding to a sensor surface in real time, without labels.)

In experiment [2] the target is SDF-FITC (FITC-labelled SDF-1α) (Felis catus (Cat) (Felis silvestris …, UniProt O62657 22-89, FITC label, site not stated)). Description: fluorescence polarization time course with FITC-labelled SDF-1α (Figures 8A-8C). (In general: Fluorescence polarisation rises when a labelled molecule tumbles more slowly, as on binding a larger partner.)
Sequence of SDF-FITC (FITC-labelled SDF-1α) (Felis catus (Cat) (O62657 22-89 limits assumed): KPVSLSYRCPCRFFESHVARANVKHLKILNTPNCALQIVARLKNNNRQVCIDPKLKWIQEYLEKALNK
The target of experiment [3] is T2, SDF-1α (stromal cell-derived factor-1 alpha) (Felis catus (Cat) (Felis silvestris …, UniProt O62657 22-89)).
T2 construct: also called SDF-lα; SDF-I α
T2 sequence (O62657 22-89 limits assumed): as above
As to the kind of experiment: SPR, SDF-1α with heparin in solution (Figure 7 legend: 1D3 IgG).

The target in experiment [4] is T1, dimeric form of SDF-1α. Description: SPR, IgG immobilised on chip, SDF-1α flowed (Table VI, not shown).
The target in experiment [5] is T2, SDF-1α (stromal cell-derived factor-1 …). Description: SPR, time course after dilution of SDF-1α in buffers HBS-EP, HBS-P and HBS-N.
The target is the same in experiment [6]. Description: SPR, Fab captured on anti-CH1 chip, SDF-1α flowed (Table IV, not shown).

T1 sequence (O62657 22-89 limits assumed): as above

B1: 1D3 Fab (Fab, V domains shown)
VH: EVQLVQSGAEVKKPGASVKVSCKVSGYTLTKLSVHWVRQAPGKGLEWMGSFDPEDGETIYSQRFQGRVTMTEDTSTDTAYMELTSLRSEDTAVYYCATEGQWLVAYYGMDVWGQGTTVTVSS
VL: EIVLTQSPSSLSASVGDRVTITCRASQGISSALAWYQQKPGKAPKLLIYDASSLESGVPSRFSGSGSGTDFTLTISSLQPEDFATYYCQQFNSYPLTFGGGTKVEIK
notes: Fab of the 1D3 human monoclonal antibody; the constant parts are not; also called B-type Fab
In the case of B1, the binding result in the experiment with dimeric form of SDF-1α [1] is given as “binds”.

B2: 1D3 IgG (antibody, V domains shown)
VH: B1 VH
VL: B1 VL
notes: Human monoclonal IgG; also called B-type IgG; B-type antibody
Take B2: the binding result (in experiment [2]; in experiment [3]; in the experiment with dimeric form of SDF-1α [4]) was “binds” in each case.

B3: 1H2 IgG (antibody, V domains shown)
VH: B1 VH with E1Q, L29F, T84S, T117M
VL: B1 VL
notes: as for B2
For B3, the binding result (in experiment [2]; with dimeric form of SDF-1α [4]; in experiment [5]) was “binds” throughout.

B4: 1H2 Fab (Fab, V domains shown)
VH: B1 VH with E1Q, L29F, T84S, T117M
VL: B1 VL
notes: Fab of the 1H2 human monoclonal antibody; the constant parts are not; also called B-type Fab
In the case of B4, the binding result (in experiment [6]; with dimeric form of SDF-1α [1]) was “binds” in each case.
